Results published in PMC2172719.

Molecular target: Ufd1–Npl4ΔZF complex (UniProt Q9ES53)
Assay: co-IP

- percent of the input material bound: < 5%
Substance: polyubiquitin chains with lysine 63 linkages (from UniProt P0CG53 1-76)
